Data as given in PMC12416549 (2024).
Positions count from the first letter of the chain named. Names may count otherwise.

Target: T1, TNFR1 (Homo sapiens, UniProt P19438)
T1 chain: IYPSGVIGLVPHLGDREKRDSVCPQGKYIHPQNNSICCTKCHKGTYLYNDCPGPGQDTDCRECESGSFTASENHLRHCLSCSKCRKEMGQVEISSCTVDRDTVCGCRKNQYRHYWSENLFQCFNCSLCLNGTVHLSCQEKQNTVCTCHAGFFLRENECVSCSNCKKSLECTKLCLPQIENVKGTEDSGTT
Test: yeast display SC50

B1: A102S (designed binder)
chain: MTLQELLREEALRRAEAEAFRYALELLAEKFPEQKEYLLDLAEEIESQIRSLSGVDVEDVRKFLDKEWAWVKELLAEHPAELAEVEAARAARLAELRAEVESKVAA
apparent Kd (screen): 0.79 nM

B2: L52F (designed binder)
chain: B1 chain with L52F, S102A
apparent Kd (screen): 1.69 nM

B3: A91H (designed binder)
chain: B1 chain with A91H, S102A
apparent Kd (screen): 0.593 nM

B4: E77D (designed binder)
chain: B1 chain with E77D, S102A
apparent Kd (screen): 0.653 nM

B5: E9M (designed binder)
chain: B1 chain with E9M, S102A
apparent Kd (screen): 0.653 nM

B6: L75P (designed binder)
chain: B1 chain with L75P, S102A
apparent Kd (screen): 2.48 nM

B7: A80L (designed binder)
chain: B1 chain with A80L, S102A
apparent Kd (screen): 0.446 nM

B8: L12W (designed binder)
chain: B1 chain with L12W, S102A
apparent Kd (screen): 0.593 nM

B9: L7N (designed binder)
chain: B1 chain with L7N, S102A
apparent Kd (screen): 24.4 nM

B10: K62G (designed binder)
chain: B1 chain with K62G, S102A
apparent Kd (screen): 0.869 nM

B11: A76Y (designed binder)
chain: B1 chain with A76Y, S102A
apparent Kd (screen): 0.539 nM

B12: A91F (designed binder)
chain: B1 chain with A91F, S102A
apparent Kd (screen): 0.49 nM

B13: A90C (designed binder)
chain: B1 chain with A90C, S102A
apparent Kd (screen): 0.718 nM

B14: A17K (designed binder)
chain: B1 chain with A17K, S102A
apparent Kd (screen): 1.16 nM

B15: H78R (designed binder)
chain: B1 chain with H78R, S102A
apparent Kd (screen): 0.49 nM

B16: A88V (designed binder)
chain: B1 chain with A88V, S102A
apparent Kd (screen): 0.956 nM

B17: S47K (designed binder)
chain: B1 chain with S47K, S102A
apparent Kd (screen): 0.653 nM

B18: L27S (designed binder)
chain: B1 chain with L27S, S102A
apparent Kd (screen): 0.593 nM

B19: A88M (designed binder)
chain: B1 chain with A88M, S102A
apparent Kd (screen): 0.718 nM

B20: A23V (designed binder)
chain: B1 chain with A23V, S102A
apparent Kd (screen): 0.653 nM

B21: A87N (designed binder)
chain: B1 chain with A87N, S102A
apparent Kd (screen): 0.593 nM

B22: L7T (designed binder)
chain: B1 chain with L7T, S102A
apparent Kd (screen): 18.3 nM

B23: E29C (designed binder)
chain: B1 chain with E29C, S102A
apparent Kd (screen): 0.539 nM

B24: F63N (designed binder)
chain: B1 chain with F63N, S102A
apparent Kd (screen): 2.05 nM

B25: I45S (designed binder)
chain: B1 chain with I45S, S102A
apparent Kd (screen): 7.78 nM

B26: L82E (designed binder)
chain: B1 chain with L82E, S102A
apparent Kd (screen): 2.73 nM

B27: E86T (designed binder)
chain: B1 chain with E86T, S102A
apparent Kd (screen): 0.718 nM

B28: K103Y (designed binder)
chain: B1 chain with S102A, K103Y
apparent Kd (screen): 0.869 nM

B29: L93G (designed binder)
chain: B1 chain with L93G, S102A
apparent Kd (screen): 1.4 nM

B30: R8I (designed binder)
chain: B1 chain with R8I, S102A
apparent Kd (screen): 0.593 nM

B31: E29I (designed binder)
chain: B1 chain with E29I, S102A
apparent Kd (screen): 1.16 nM

B32: A28L (designed binder)
chain: B1 chain with A28L, S102A
apparent Kd (screen): 20.2 nM

B33: A105F (designed binder)
chain: B1 chain with S102A, A105F
apparent Kd (screen): 0.869 nM

B34: L27K (designed binder)
chain: B1 chain with L27K, S102A
apparent Kd (screen): 0.49 nM

B35: A94E (designed binder)
chain: B1 chain with A94E, S102A
apparent Kd (screen): 0.539 nM

B36: L3V (designed binder)
chain: B1 chain with L3V, S102A
apparent Kd (screen): 0.593 nM

B37: F63I (designed binder)
chain: B1 chain with F63I, S102A
apparent Kd (screen): 1.54 nM

B38: K66W (designed binder)
chain: B1 chain with K66W, S102A
apparent Kd (screen): 0.539 nM

B39: A94H (designed binder)
chain: B1 chain with A94H, S102A
apparent Kd (screen): 0.446 nM

B40: A23D (designed binder)
chain: B1 chain with A23D, S102A
apparent Kd (screen): 2.25 nM

B41: K35E (designed binder)
chain: B1 chain with K35E, S102A
apparent Kd (screen): 1.16 nM

B42: A102E (designed binder)
chain: B1 chain with S102E
apparent Kd (screen): 0.49 nM

B43: A94P (designed binder)
chain: B1 chain with A94P, S102A
apparent Kd (screen): 0.956 nM

B44: V85N (designed binder)
chain: B1 chain with V85N, S102A
apparent Kd (screen): 0.653 nM

B45: V60M (designed binder)
chain: B1 chain with V60M, S102A
apparent Kd (screen): 0.49 nM

B46: R21Q (designed binder)
chain: B1 chain with R21Q, S102A
apparent Kd (screen): 0.539 nM

B47: L12Y (designed binder)
chain: B1 chain with L12Y, S102A
apparent Kd (screen): 0.539 nM

B48: R97T (designed binder)
chain: B1 chain with R97T, S102A
apparent Kd (screen): 0.539 nM

B49: L93F (designed binder)
chain: B1 chain with L93F, S102A
apparent Kd (screen): 0.539 nM

B50: L52M (designed binder)
chain: B1 chain with L52M, S102A
apparent Kd (screen): 15.2 nM

B51: H78L (designed binder)
chain: B1 chain with H78L, S102A
apparent Kd (screen): 1.86 nM

B52: M1W (designed binder)
chain: B1 chain with M1W, S102A
apparent Kd (screen): 0.653 nM

B53: Q48N (designed binder)
chain: B1 chain with Q48N, S102A
apparent Kd (screen): 0.49 nM

B54: Y22H (designed binder)
chain: B1 chain with Y22H, S102A
apparent Kd (screen): 0.49 nM

B55: V85S (designed binder)
chain: B1 chain with V85S, S102A
apparent Kd (screen): 0.869 nM

B56: A76D (designed binder)
chain: B1 chain with A76D, S102A
apparent Kd (screen): 0.446 nM

B57: E86K (designed binder)
chain: B1 chain with E86K, S102A
apparent Kd (screen): 1.27 nM

B58: L3W (designed binder)
chain: B1 chain with L3W, S102A
apparent Kd (screen): 2.25 nM

B59: A83I (designed binder)
chain: B1 chain with A83I, S102A
apparent Kd (screen): 0.869 nM
